Results from the supplement of paper PMC10567573.
± gives the standard deviation.

Test: protein stability index of a GFP-peptide fusion (GPS, HEK-293T) (PSI 1-6); higher = more stable
[1] = treatment: DMSO, c terminus: a fixed tail appended
[2] = treatment: MLN4924 1 uM, 8 h, c terminus: a fixed tail appended
[3] = treatment: DMSO, c terminus: native
[4] = treatment: MLN4924 1 uM, 8 h, c terminus: native
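Also: 24-mer peptide tiles fused after GFP, lentivirally expressed, FACS-sorted into six equal bins by GFP/DsRed ratio, decoded by Illumina sequencing, PSI is the read-weighted mean bin number.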

Sequence | protein stability index [1] | protein stability index [2] | protein stability index [3] | protein stability index [4]
RYIVNGSHEANKLQDMLDGFIKKF [EIF5] | 1.98 ± 0.23 | 2.17 ± 0.34 | – | –
LSELLRYHTSQSGDEMTSLSEYVS [HSP90AB1] | 3.27 ± 0.23 | 3.6 ± 0.21 | – | –
AAQPMTKKRKVDGLSTEAEQPFIP [PRAME] | 4.43 ± 0.21 | 4.55 ± 0.27 | – | –
PPRGRSEAPDSLNGPLGPSEASIA [SMG5] | 5.07 ± 0.27 | 5.12 ± 0.14 | – | –
LDVERWLKPAMTQAQDEVEQERRL [FCHSD1] | 4.98 ± 0.16 | 5.11 ± 0.19 | – | –
QALRQMNEGAIDCVNYEGQSAYDV [DLC1] | 4.41 ± 0.22 | 4.39 ± 0.1 | – | –
SLPQNQCYMATTKSQTACLPFVLA [EHMT1] | 2.35 ± 0.08 | 2.23 ± 0.15 | – | –
NWEAPPGAFDSFLLRFGVPSPSTL [TNXB] | 3.06 ± 0.37 | 2.85 ± 0.28 | – | –
PEDGRIFAQRTFDYELLQMLQIVV [PCDHGC5] | 2.19 ± 0.4 | 2.3 ± 0.36 | – | –
IISGVSKVPIAQDELALSLGYAAS [C2CD2L] | 2.58 ± 0.3 | 2.55 ± 0.32 | – | –
TSRAPSTYTYTSRPRALPCQRSRY [RSPH3] | 3.65 ± 0.15 | 3.84 ± 0.31 | – | –
KANSPLKGHERTVQYLQHLGTENL [VPS39] | 3.85 ± 0.3 | 3.71 ± 0.31 | – | –
NNVVPIHVPPTTENKPKVQCCQNI [RAB11A] | 4.56 ± 0.15 | 4.57 ± 0.21 | – | –
VIEAIAQITVKALPKPPGTPVVTE [PTPRD] | 2.3 ± 0.4 | 2.16 ± 0.27 | – | –
RRLRGEQRGQEPLGPGALHFDLRD [TCF25] | 4.24 ± 0.22 | 4.43 ± 0.21 | – | –
TARAHPAKARDLYKGRQLQGCPGA [SMOC2] | 3.23 ± 0.64 | 4.41 ± 0.57 | – | –
VQFHRHHGQEGSILVTKVEEPSKY [GMPPB] | 3.45 ± 0.31 | 3.58 ± 0.27 | – | –
EIERAIKQTQCPADPLQLNKALSI [FEM1C] | 3.42 ± 0.44 | 3.28 ± 0.16 | – | –
TLQNGRRHIHHLGNQLQLNQHCLD [BRF1] | 3.1 ± 0.034 | 3.31 ± 0.097 | – | –
PRETLCTELVLSDCMLSEEGATLL [LRRC45] | 3.65 ± 0.2 | 3.83 ± 0.11 | – | –
TDYINASFMDGYKQKNAYIGTQGP [PTPN9] | 2.94 ± 0.24 | 3.21 ± 0.21 | – | –
PQDRYKAVWLIFFMLGLGTLLPWN [SLC29A1] | 3 ± 0.27 | 3.29 ± 0.37 | – | –

Sequence | protein stability index [1] | protein stability index [2] | protein stability index [3] | protein stability index [4]
TWHDERFLYMLMEYVPGGELFSYL [PRKX] | 2.85 ± 0.7 | 2.75 ± 0.35 | – | –
MSLEPQNGTYAGPAPAFQPFFFTG [ANKRD40] | 2.29 ± 0.35 | 2.15 ± 0.31 | – | –
QQKKDLEILHQQNIHQLQNRLSEL [SASS6] | 3.96 ± 0.21 | 4.13 ± 0.2 | – | –
TLLAIGTKLPENQAIQMRLVDVAC [INTS4] | 2.12 ± 0.19 | 2.09 ± 0.15 | – | –
LMAGCIQEARERWNFDFVTETPLE [CDKN1A] | 2.84 ± 0.67 | 2.92 ± 0.33 | – | –
DNLKFSQEYESIDPGQQFTWEHSN [PTPRD] | 4.57 ± 0.44 | 4.57 ± 0.11 | – | –
MSKLLKRQNDILQVVSQGWKYFKG [CD207] | 2.28 ± 0.36 | 2.28 ± 0.082 | – | –
VSRREGALGWAPAAPPPLKDDPEG [ZBED3] | 5.24 ± 0.37 | 5.43 ± 0.12 | – | –
AKEVTIAKADTTSTVTPVPGQEKG [EHMT1] | 5.36 ± 0.28 | 5.52 ± 0.2 | – | –
RSGAGVALLNDHIYVVGGFDGTAH [KLHL12] | 2.78 ± 0.43 | 2.37 ± 0.46 | – | –
PGFYATYESTLFEDQVPALEAPED [MIA2] | 5.18 ± 0.27 | 4.92 ± 0.36 | – | –
PFYTSRIDEVLLHQDVDLVCINLP [GFOD1] | 2.08 ± 0.18 | 2.21 ± 0.35 | – | –
ARYGHLDVVEYLVDRCGASVEAGG [FEM1A] | 2.81 ± 0.16 | 2.98 ± 0.43 | – | –
EGSSQEDEDLGLSEGSSQDSGED [SPANXN3] | – | – | 5.55 ± 0.24 | 5.56 ± 0.19
KKEESGRERKKNWGGQEDREPAGR [PBXIP1] | 5.16 ± 0.14 | 5.33 ± 0.26 | – | –
TLAGVGAQGAALEDPDYYGQEIWS [CPXM2] | – | 3.96 ± 0.11 | – | –
CLRKYGNANVWKYFTDLFDYLPLT [PPP2CA] | 2.4 ± 0.57 | 2 ± 0.31 | – | –
TVTSVSCCHGNTLLAVRSVTDEPV [NEK8] | 3.21 ± 0.23 | 3.14 ± 0.33 | – | –
SCKACGYRGMLDTHHKLCTFILKN [EIF5] | 2.55 ± 0.35 | 2.77 ± 0.46 | – | –
LATASYDTRVYIWDPHNGDILMEF [WSB1] | 2.85 ± 0.12 | 2.86 ± 0.26 | – | –
GFLPWLMNEVEKTMEYSMVGRTVL [RSPH3] | 2.8 ± 0.54 | 2.94 ± 0.41 | – | –
GSHPQQTQKLEEIKENAQDTMRQI [TOR1AIP2] | 5.27 ± 0.26 | 5.38 ± 0.24 | – | –

Sequence | protein stability index [1] | protein stability index [2] | protein stability index [3] | protein stability index [4]
GKDHEILRRRIENGAKELWFFLQS [FUT8] | 2.08 ± 0.65 | 2.36 ± 0.27 | – | –
LLLSHIHASSYISPEKEEQYIAQF [PRAME] | 2.42 ± 0.54 | 2.37 ± 0.4 | – | –
FFHCYCPVGFGRRTDPNGDYIRRY [CRY1] | 2.4 ± 0.048 | 2.34 ± 0.42 | – | –
VRKHPAVKEKGSTLDLSDLEAEKL [SCD] | 5.12 ± 0.3 | 4.82 ± 0.14 | – | –
ASNRIIGAKDHASIQMNVAEVSWE [RPS21] | 3.63 ± 0.44 | 3.63 ± 1.4 | – | –
TKQWTLIAKHLKGRLGKQCRERWH [MYBL2] | 2.51 ± 0.68 | 2.26 ± 0.38 | – | –
DAETSKLIYDFIEDQGGLEAVRQE [WAS] | 4.61 ± 0.24 | 4.76 ± 0.28 | – | –
NRKRECGNAHYQRADFVLAANSYD [FKBP8] | 3.33 ± 0.35 | 3.68 ± 0.29 | – | –
KESLETPSNGRIDIKQLIAKKIKL [SOAT1] | 2.55 ± 0.14 | 2.94 ± 0.27 | – | –
AYRGNCKDVSRCVAERKYTQEQAR [SMOC2] | 3.06 ± 0.19 | 3.38 ± 0.46 | – | –
CKDSESNKHLCYVFDSEKCVSIPD [GULP1] | 3.27 ± 0.11 | 3.41 ± 0.35 | – | –
ISPGRVYEYTSCTTFSTTSGYMEG [FBXO3] | 2.78 ± 0.22 | 2.69 ± 0.36 | – | –
TGLSMIANGGAICAVTFFTILLSY [OR4A15] | 2.85 ± 0.28 | 3.16 ± 0.38 | – | –
SYPVMGFEFQVRVCDSCYDSIKDE [WDFY1] | 2.76 ± 0.18 | 3.06 ± 0.39 | – | –
YLEVLETMDNKKGRRYEAVKWMVV [CLCN6] | 2.4 ± 0.72 | 2.25 ± 0.28 | – | –
GARLVAACSAWLCPGLRLPGSLAG [AUH] | 2.55 ± 1.2 | 3.26 ± 0.84 | – | –
QFSLMLCAFVGALGGAAFLGTAIF [SPNS1] | 2.81 ± 0.47 | 2.47 ± 0.41 | – | –
QPGLLHLQSCGDLHTFTPAGRPRA [FAM189A2] | 5.66 ± 0.44 | 5.53 ± 0.18 | – | –
QSSNLFRHQRRHNAEKLLNVVKV [ZNF24] | – | – | 1.84 ± 0.38 | 2.11 ± 0.26
TAYIRVKVDGPRSPSYGRSRSRSR [SRSF1] | 3.75 ± 0.21 | 4 ± 0.29 | – | –
TLLQDHENQRLFEMLGRKCLTLAT [WAS] | 2.37 ± 0.29 | 2.33 ± 0.28 | – | –
